Assay [1] concerns the target T1, Mas receptor (Homo sapiens, UniProt P04201).
T1 construct: expressed in transfected cells; host or cells: CHO-K1 (ATCC-CCL-61), transient co-transfection
T1 sequence (P04201 1-325): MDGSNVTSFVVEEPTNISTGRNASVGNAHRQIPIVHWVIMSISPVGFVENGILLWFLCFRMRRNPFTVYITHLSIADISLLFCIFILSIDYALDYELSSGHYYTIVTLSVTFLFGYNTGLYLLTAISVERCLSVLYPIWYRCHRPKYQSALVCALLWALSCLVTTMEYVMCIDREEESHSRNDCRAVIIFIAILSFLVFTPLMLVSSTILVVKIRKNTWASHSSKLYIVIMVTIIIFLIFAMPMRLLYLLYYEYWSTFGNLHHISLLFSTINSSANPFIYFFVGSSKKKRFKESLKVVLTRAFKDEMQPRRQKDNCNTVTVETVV
The experiment in a line: Calcium flux in Mas-transfected CHO-K1 cells. The conditions noted are these: dose response, Mas-transfected cells. The format is cell-based. How it is done:
(§1) The assay was carried out in CHO cells were transiently transfected with the GPCR of choice, by utilizing the promiscuous Gα16 to divert signaling to the Gq pathway, thus enabling readout of GPCR activation by testing for Calcium flux as described by Liu et al 2003 (Biomol Screen 8, 39-49).
(§2) All the peptides thus obtained were tested for their ability to change calcium flux in CHO-K1 cells (ATCC-CCL-61) transiently co-transfected with an expression vector containing the GPCR of choice and expression vector containing the Gα16 encoding cDNA. Expression constructs containing cDNA clones for MrgX1, MrgX2, Mas or FPRL1 were commercially obtained in one of the following expression vectors: pcDNA3.1, pCMV6, or MO2.
(§3) Transient transfections were performed using CHO-K1 cells as host cells. Cells (12 million) were plated into T75 flasks on the day preceding transfection. Cells were transfected with the appropriate GPCR expression vector and with a vector expressing Gα16 using a lipid-based reagent, MTI, according to the manufacturer's recommendation. Cells were transfected for 5 hours, then re-plated into 96-well dishes (60,000 cells per well) and grown overnight.
(§4) On the day of the experiment, cells were loaded with Fluo-4-NW (Invitrogen) according to the manufacturer's recommendation. Plates were loaded into a FlexStation™ (Molecular Devices) plate reader and fluorescence was monitored. Seventeen seconds following initiation of reading, cells were stimulated with the indicated agonist/compound at final concentration of 1 μM. Each 96 well plate contained cells transfected with one GPCR expression vector and each of the examined peptides was tested in triplicate.
(§5) We defined a hit as a peptide which elicited a clear and distinct increase in intracellular calcium that is clearly visible and statistically significant upon examination of the calcium trace for at least two repeats. The criterion for statistical significance was a p-value lower than 0.001 in a t-test comparing the levels of calcium before and after peptide addition.
Based on dose response experiments, EC50 best fit values were calculated by non-linear regression of sigmoidal dose-response curves, using Prism version 4 (GraphPad Software Inc., San Diego, Calif.). The formulae for the sigmoidal dose-response curves was defined as Y=Bottom+(Top−Bottom)/(1+10^(Log EC50−X)*HillSlope))
The ability of Peptides to change calcium flux was examined in CHO-K1 cells co-transfected with Mas receptor and Gα16.
The P33 monomer and dimer, as well as other P33 derivative peptides were compared for their ability to induce calcium flux in the Mas-transfected cells at 0.1, 1, 10, 100, 1000 and 10000 nM.
Background: A change in cytosolic calcium serves as a functional read-out for many receptors and channels.

The subject of assay [2] is cardiac remodeling induced by Isoproterenol in Wistar rats. Nature of the assay: Cardiac remodeling induced by Isoproterenol. The assay is classed as in vivo, rat. The method, then: The effect of the peptides […] (SEQ ID NO:10), […]-dimer ([…]) (SEQ ID NO9), P33_V (SEQ ID NO:7), P33-dimer (P33_D) (SEQ ID NO:6) on cardiac remodeling, was tested by determining their effect on heart hypertrophy and fibrosis (deposition of collagen I, III, and fibronectin) induced by Isoproterenol. Losartan (an antagonist of the known angiotensin II receptor, AT1, Kucharewicz et al., 2002; Hypertension, (40): 774-779) was used as positive control. The negative control group was treated with vehicle only. Additional control groups included rats not-treated with isoproterenol which were treated with the peptides, with Losartan or with the vehicle. The analysis included determination of the left ventricle mass and morphometry. In addition, immunofuorescence analysis of fibronectin and collagens I and III deposition was performed by confocal microcopy. Animals Acclimatization: Male Wistar rats Age: 13-14 weeks (250 to 300 g) were maintained in the animal facilities for 7 days before the beginning of the experiment. The animals were exposed to a brightness circle of light-dark cycle of 12hs (day-06:00 to 18:00; night-18:00 to 06:00), and the room temperature was kept at 23±2° C. Heart failure was induced by daily injections of isoproterenol (2 mg/kg/day, subcutaneously) during 7 days. […] Immunofluorescence-labeling and quantitative confocal microscopy was used to investigate the distribution and quantity of collagen types I, III and fibronectin present in the left ventricles. […] Optimal confocal settings (aperture, gain and laser power) were determined at the beginning of each imaging session and then held constant during the analysis of all the samples. […] For quantitative analysis of collagens I, III, and fibronectin, the ImageTool 2.0 image analysis program was used (see “[…] University of Texas Health Science Center at San Antonio website) to measure the fluorescence intensity in images randomly selected. […]

Assay [3] addresses T2, FPRL1 (Homo sapiens, UniProt P25090).
T2 sequence (P25090 1-351): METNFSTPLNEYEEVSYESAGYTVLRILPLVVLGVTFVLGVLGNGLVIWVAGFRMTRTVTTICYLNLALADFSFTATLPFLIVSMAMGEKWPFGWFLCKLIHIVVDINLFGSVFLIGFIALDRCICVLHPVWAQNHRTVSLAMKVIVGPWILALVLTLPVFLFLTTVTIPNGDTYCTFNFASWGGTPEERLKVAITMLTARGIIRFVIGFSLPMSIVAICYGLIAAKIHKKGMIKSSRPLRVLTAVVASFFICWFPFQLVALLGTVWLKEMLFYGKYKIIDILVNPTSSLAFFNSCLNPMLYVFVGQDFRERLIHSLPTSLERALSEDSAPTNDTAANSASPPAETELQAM
The experiment in a line: Calcium flux in FPRL1-transfected CHO-K1 cells. The format is cell-based. Further details: expressed in transfected cells; host or cells: CHO-K1 (ATCC-CCL-61), transient co-transfection. The conditions noted are these: for calcium flux relative to the negative control: CHO-K1 co-transfected with FPRL1 and Gα16, 1 μM, about 20-90 seconds. How it is done:
as §1, §2, §3
On the day of the experiment, cells were loaded with Fluo-4-NW (Invitrogen) according to the manufacturer's recommendation. Plates were loaded into a FlexStation™ (Molecular Devices) plate reader and fluorescence was monitored. […] Each 96 well plate contained cells transfected with one GPCR expression vector and each of the examined peptides was tested in triplicate.
as §5
The ability of Peptides to change calcium flux was examined in CHO-K1 cells co-transfected with FPRL1 and Gα16.
The P33-derived peptides (see FIG. 1): P33_V (SEQ ID NO:7), P33 (SEQ ID NO:6)-mono, P33 (SEQ ID NO:6)-dimer, P33—5 (SEQ ID NO:27), P33—8 (SEQ ID NO:14), P33—9 (SEQ ID NO:15) and P33—10 (SEQ ID NO:16) were tested for their ability to activate FPRL1 using the calcium flux assay in FPRL1-transfected CHO cells. […] The lack of activity of these peptides might be due to reduced potency; insufficient sensitivity of the experimental system, alternative interaction of the receptor, or activation of other pathways, which are not related to calcium flux. Thus, this interaction should be further characterized.

Assay [4] concerns the target T3, MrgX2 (Homo sapiens, UniProt Q96LB1).
T3 construct: expressed in transfected cells; host or cells: CHO-K1 (ATCC-CCL-61), transient co-transfection
T3 sequence (Q96LB1 1-330): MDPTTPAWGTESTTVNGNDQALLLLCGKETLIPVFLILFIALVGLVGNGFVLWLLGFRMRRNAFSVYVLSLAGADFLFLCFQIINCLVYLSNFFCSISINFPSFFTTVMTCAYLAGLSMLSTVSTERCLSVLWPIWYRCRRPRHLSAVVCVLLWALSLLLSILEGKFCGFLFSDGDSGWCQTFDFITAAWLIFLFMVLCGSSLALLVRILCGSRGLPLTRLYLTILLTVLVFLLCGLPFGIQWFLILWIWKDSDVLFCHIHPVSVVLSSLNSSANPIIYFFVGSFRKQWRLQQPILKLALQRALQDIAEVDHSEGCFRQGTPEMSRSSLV
The experiment in a line: Calcium flux in MrgX2-transfected CHO-K1 cells. The format is cell-based. The settings on record: for calcium flux relative to the negative control: CHO-K1 co-transfected with MrgX2 and Gα16, 1 μM, about 20-90 seconds; for eliciting calcium flux compared with cortistatin-14: summary statement, MrgX2-expressing cells. How it is done: as §1, §2, §3, §4, §5
The ability of Peptides to change calcium flux was examined in CHO-K1 cells co-transfected with MrgX2 and Gα16.

Assay [5] has as its target T2, FPRL1. The experiment in a line: Competitive radioligand binding assay to FPRL1 ([125I] WKYMVm). Further details: expressed in transfected cells; host or cells: CHO cells. The settings on record: 0.025 nM [125I] WKYMVm; CHO transfected cells. How it is done:
The specific binding of Peptide 58 (SEQ ID NO:1) to FPRL1 was analyzed by testing its ability to compete with 0.025 nM [^125I] WKYMVm (W peptide), a known agonist of FPRL1, for binding to FPRL1 in CHO transfected cells. CKβ8-1 (aa 46-137), another known ligand of FPRL1 was used as a positive control in this assay (Chiang et al 2006, Pharmacological Reviews 58, 463-487). Peptides were incubated with cells for 90 minutes at 25° C., in the presence of Incubation Buffer (50 mM HEPES, pH 7.4, 100 mM NaCl, 5 mM KCl, 5 mM MgCl2, 2 mM Ca Cl2, 0.5% BSA) and the amount of radioactive W peptide was measured.

No end group written: not given here.

Take “FLGYCIYLNRKRRGDPAFKRRLRD (also: dimer via cysteine; listed as Homo sapiens) [Peptide P61_dimer]”: the “ability to induce calcium flux, relative potency (P61 family)” value in assay [1] was “more potent than the monomeric P61 peptides”. Further, the “heart hypertrophy as measured by deposition of Fibronectin, Collagen I and Collagen III” value in assay [2] (1 ug/hour/Kg by osmotic minipump, partial data, 3 out of 6 animals of each group) is “effective in reducing the heart hypertrophy”. Besides, in assay [2] (partial data, 3 out of 6 animals, FIG. 40), the “effect as measured by Fibronectin deposition” value is “not significant”.

Consider `CCCCc1nc(Cl)c(CO)n1Cc1ccc(-c2ccccc2-c2nn[nH]n2)cc1` [Losartan, reference compound], for which, in assay [2] (isoproterenol 2 mg/kg/day s.c. 7 days, peptides 1 ug/hour/Kg by osmotic minipump, Losartan 1 mg/kg once a day by gavage), the “left ventricle to body mass ratio (LV/BW)” value is on record as “did not have an effect”.

Regarding “AAQATGPLQDNELPGLDERPPRAHAQHFHKHQLWPSPFRALKPRP (listed as Homo sapiens) [Peptide P94]”, the “calcium flux relative to the negative control” value in assay [3] was “increased calcium flux”. In assay [4], the “calcium flux relative to the negative control” value is recorded as “increased calcium flux” and the “eliciting calcium flux compared with cortistatin-14” value was “superior to cortistatin-14”.

Turning to “AHAQHFHKHQLWPSPFRALKPRP (listed as Homo sapiens) [Peptide 63]”, in assay [4], the “calcium flux relative to the negative control” value was “increased calcium flux” and the “eliciting calcium flux compared with cortistatin-14” value is on record as “superior to cortistatin-14”.

Regarding TIPMFVPESTSKLQKFTSWFM-NH2 [Peptide P58], the “calcium flux relative to the negative control” value in assay [3] is “increased calcium flux”. For the same molecule, the “calcium flux (P58 family)” value in assay [3] (dose response, FPRL1 transfected CHO cells) is listed as “elicited calcium flux”. Also, in assay [5], the affinity, expressed as Ki, was 54.1 nM.
